# From paper PMC6367419 (Nature Communications, 2019)
# B1: EscO^1–125 (full-length EPEC central stalk protein EscO) (natural protein)
# chain: MLDRILSIRKSRANRLRESMAKINSQIKEVDGKLDDCEQAIKESIASKQAYCASLVNLDKVSLYKYQIKNNAFDEQKQRLYEKKSSLSKEKRSLLDSQKRTKEDLQHVNKSIEKLSFAIKEHYFD
# notes: source: E. coli BL21 (λDE3), purified (HisTrap HP, thrombin cleavage, second HisTrap HP, desalting)
# B2: EscN^29–446 (EPEC type III secretion system ATPase EscN, residues 29–446) (enzyme)
# chain: NSSTRYEGKIINIGGTIIKARLPKARIGAFYKIEPSQRLAEVIAIDEDEVFLLPFEHVSGMYCGQWLSYQGDEFKIRVGDALLGRLIDGIGRPMESNIVAPYLPFERSLYAEPPDPLLRQVIDQPFILGVRAIDGLLTCGIGQRIGIFAGSGVGKSTLLGMICNGASADIIVLALIGERGREVNEFLALLPQSTLSKCVLVVTTSDRPALERMKAAFTATTIAEYFRDQGKNVLLMMDSVTRYARAARDVGLASGEPDVRGGFPPSVFSSLPKLLERAGPAPKGSITAIYTVLLESDNVNDPIGDEVRSILDGHIVLTRELAEENHFPAIDIGLSASRVMHNVVTSEHLRAAAECKKLIATYKNVELLIRIGEYTMGQDPEADKAIKNRKLIQNFIQQSTKDISSYEKTIESLFKVVA
# notes: also called T3SS ATPase; chains NA to NF; source: E. coli BL21 (λDE3), purified (HisTrap HP, thrombin cleavage, second HisTrap HP, desalting)
# How the values were obtained:
# [1] = target: T1, EscN-EscO complex (EscN^29–446 with EscO^1–125) (Escherichia coli, UniProt B7UMA6); settings: 3 mM ATP, 500 nM EscN, EscO 1:1 molar, 37 °C; pre-incubated with Mg2+ADP-AlF3, diluted out before assay
# [2] = target: EscN^29–446 (EPEC type III secretion system ATPase EscN, residues 29–446) (enteropathogenic Escherichia coli (EPEC) O127:H6 E2348/69) (UniProt B7UMA6)
# [3] = target: T1, EscN-EscO complex (EscN^29–446 with EscO^1–125); assay: cryo-EM structure, […] Å; assay type: binding; parameters: EscN residues 29-446 plus full-length EscO (125 residues); N-terminal 6His tags cleaved with thrombin (tag residue 0 left on EscO); E. coli BL21(DE3); 6:1 complex; with Type III secretion system central stalk protein EscO; settings: bound as transition state analogue Mg2+ADP-AlF3; pH 7.5; catalytic inter-subunit sites (four of six)
# [4] = target: B2; assay: cryo-EM structure; settings: both partners purified
# cryo-EM structure = target: the molecule itself; assay: cryo-EM structure
molecule,measurement,setting,value
Nc1ncnc2c1ncn2[C@@H]1O[C@H](COP(=O)(O)OP(=O)(O)OP(=O)(O)O)[C@@H](O)[C@H]1O [ATP],EnzChek phosphate release ATPase assay,[1],found to further enhance EscN oligomerization and ATPase activity
EscO^1–125 Lys110Glu/Lys114Glu (natural protein),decrease in catalytic rate of EscN ATPase (EnzChek) with the EscO mutant against wild-type EscO,[2],50%
Nc1ncnc2c1ncn2[C@@H]1O[C@H](COP(=O)(O)OP(=O)(O)O)[C@@H](O)[C@H]1O [ADP],"cryo-EM structure, 3.29 Å",[3],"Sample density of the class two catalytic site ligands ADP, AlF3 (grey and cyan)"
B1,stoichiometry N,[4],1 EscO per EscN hexamer
B2,stoichiometry N,cryo-EM structure,6
